Measurements published in patent US20110217317A1 (published 2011).
Substitutions are numbered along the chain they refer to.

B1: RhD197.127A08 (Fab, V domains shown)
VH: QVQLVESGGGVVQPGRSLRLSCAASGFTFSNYGMHWVRQAPGKGLEWVAVIWFDGSNRDYADSVKGRFTISRDNSKKTLYLQMNSLRAEDTAVYYCATELARGRLRALEYWGQGTLVTVSS
VL: QTVVTQEPSLTVSPGGTVTLTCASSTGAVTTGYYPNWFQQKPGQAPRALIYSTSKKHSWTPARFSGSLLGGKAALTLSGVQPEDEAEYYCLLFYGGAQLGVFGGGTKLTVLG
notes: Tested as Fab (periplasmic extract); lambda clone
B2: RhD207.127A11 (Fab, V domains shown)
VH: EVQLVESGGGVVQPGRSLRLSCAASGFTFSSYGMHWVRQAPGKGLEWVAVIWYDGSNKDYVDSVKGRFTISRDNSKNTLYLQMNSLRAEDTAVYYCARELAKGRLRDLDHWGQGTLVTVSS
VL: B1 VL with T2A, I50V, Y51H
notes: Tested as Fab (periplasmic extract)
B3: RhD202.158E07 (Fab, V domains shown)
VH: QVQLVESGGGVVQPGRSLRLSCAASGFTFSSYGMHWVRQAPGKGLEWVAVIWFDGSNRYYGDSVKGRVTISRDNSKNTLYLRMNSLRAEDTAVYYCAREFYTRSGLWSQGYSYYMDVWGKGTTVTVSS
VL: EIVLTQSPGTLSLSPGERATLSCRASQSVSSSYLAWYQHKPGQAPRLLIYGSSNRATGIPDRFSGSGSGTDFTVTISRLEPEDFAVYYCQQYGTAPYTFGQGTKLEIKR
notes: as for B2
B4: RhD195.127A07 (Fab, V domains shown)
VH: QVQLQESGPGLVKPSQTLSLTCTVSGGSISSGSYYWSWIRQPAGKGPEWIGRIYTSGSTNYNPSLKSRLTISVDTSKNQFSLKLTSVTAADTAVYYCARAPSYYDSSGYRYWYIDLWGRGTLVTVSS
VL: DIQLTQSPSSLSASVGDRVTITCRASQNINRYLNWYQHKPGRAPELLIYAASTLRRGVPSRFSGSGSGTDFTLTISSLQPEDFATYYCQQSYSRGTFGQGTKVEIKR
notes: as for B2
B5: RhD190.119F05 (Fab, V domains shown)
VH: EVQLVETGGGVVQPGRSLRLSCAASGFSFSNYGMHWVRQAPGKGLEWVAVIWFDGSIKYYVDSVKGRFTISRDNSKNTLYLQMNSLRAEETAIYFCARENSVLVPGTIRRRYYLDYWGQGTLVTVSS
VL: DIQLTQSPSSLSASVGDRVTITCRASQSISSYLNWYQQKPGEAPKLLIYVASTLQSGAPSRFSGSGSGTDYTLTISSLQPEDSATFYCQQTYSPPYTFGQGTKLEIKR
notes: as for B2
B6: RhD204.128A03 (Fab, V domains shown)
VH: EVQLVESGGGVVQPGRSLRLSCAASGFSFSNYGMHWVRQAPGKGLEWVAVISYDGSEKYYADSVKGRFTISRDNSKKALYLQMNSLRAEDTAMYYCKNKVGATRRAVVAFDIWGQGTTVTVSS
VL: LSSELTQDPAVSVALGQTVRITCQGDSLRSYYANWYQQKPGQAPLSVIYGKNNRPSGIPDRFSGSNSGNTAFLTITGTQAEDEADYYCNSRDSSGNYRELFGGGTKLTVLG
notes: as for B1
B7: RhD157.119D11 (Fab, V domains shown)
VH: EVQLVESGGGLVQPGGSLRLSCVASGFTFRSFDMNWVRQAPGKGLEWVSYINSRGSTIYYADSVKGRFTISRENAKNSLYLQMNSLRAEDTAVYYCARDLYGDYDPKSYYYYGMGVWGQGTTVTVSS
VL: EIVLTQSPATLSLSPGERATLSCRASQSVSSYLAWYQQKRGQAPRLLIFNASNRATGIPARFSGSGSGTDFTLTISSLEPEDFAVYYCQQRSSWPPMYTFGQGTKLEIKR
notes: as for B2
B8: RhD199.164E03 (Fab, V domains shown)
VH: QVQLVESGGGVVQPGRSLRLSCAASGFTFSSYGMHWVRQAPGKGLEWVAVIWYDGSNKYYADSVKGRFTISRDNSKNTLHLQMNSLRAEDTAVYYCAREVGFGSGWSRYYYGMDVWGQGTTVTVSS
VL: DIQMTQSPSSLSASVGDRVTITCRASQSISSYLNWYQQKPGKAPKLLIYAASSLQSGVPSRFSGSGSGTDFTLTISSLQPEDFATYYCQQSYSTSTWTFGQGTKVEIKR
notes: as for B2
B9: RhD191.119E08 (Fab, V domains shown)
VH: QVQLVESGGDLVQPGGSLRLSCAASGFTFRSYEMNWVRQAPGKGLEWVSYINSRGNTKYYADSVKGRFTISRDNAKKSLYLQMSSLRAEDTAVYYCARNLFGDYDLKSYYYNAMDVWGQGTLVTVSS
VL: EIVLTQSPGTLSSSPGERATLSCRASQSVTSRYLAWYQQKHGQAPRLLIYGTSTRATGIPDRFSGGGSQTDFTLTISRLEPEDFAVYYCQHYDDSISTYIFGPGTELEIKR
notes: as for B2
B10: RhD203.179F07 (Fab, V domains shown)
VH: EVQLVESGGGVVQPGRSLRLSCAASGFTFSNYGMHWVRQAPGKGLEWVAVIWYDGSNKYYADSVKGRFTISRDNSKNTLYLQMNSLRAEDTAVYYCAREMVSYSSSWYRRYYYYVMDVWGKGTTVTVSS
VL: QSALTQPASVSGSPGQSITISCTATSSDIGAYNYVSWYQHHPGKAPKVIITDVNKRPSGVPDRFSGSKSGNTASLTISGLQPEDEAEYSCCSYAGTYSYVFGTGTKVTVLS
notes: as for B2
B11: RhD194.126G10 (Fab, V domains shown)
VH: QVTLKESGPVLVKPTETLTLTCTVSGFSLSNARMGVSWIRQPPGKALEWLAHIFSNDEKSYSTSLKSRLTISKDTSKSQVVLTMTNMDPVDTATYYCARMRLTMVRGVITYYYYSMDVWGQGTTVTVSS
VL: DIQMTQSPSSLSASVGDRVTITCRASQSISTYLNWYQQKPGKAPKLLIYAASTLQSGVPSRFSGSGSGTHFTLTISSLQREDFATYYCQQTYRTPTWTFGQGTKVEIKR
notes: as for B2
B12: RhD298.126E10 (Fab, V domains shown)
VH: B8 VH with H80Y, L86V, E99D, V100L, G101S, F102T, G103Q, S104R, W106Y, G112V
VL: B11 VL with Y49S, T53S, H70D, F83Y, T85A, T91S, R93S, T96P, W97Y, V105L
notes: as for B2
B13: RhD198.127F10 (Fab, V domains shown)
VH: QVQLVQSGGGVVQPGKSLRLSCAASGFTFSTYGMHWVRQAPGKGLEWVAVIWYDGSNKYYADSVKGRFTISRDTSKNTLYLQMNSVRVEDTAVYYCARDLTTQRGYSRYHYVMDVWGQGTTVTVSS
VL: DIQMTQSPSSLSASVGDRVTITCRASQSIGNYLNWYQQKPGKAPKLLISAASSLQSGVPSRFSGSGSGTDFTLTISSLHREDYATYYCQQSYSTPPYTFGQGTKLEIKR
notes: as for B2
B14: RhD196.126H11 (Fab, V domains shown)
VH: B13 VH with Q6E, K16R, T31S, Y59D, T74N, V88A, D99E, T101S
VL: B11 VL with T91S, R93G
notes: as for B2
B15: RhD193.126G05 (Fab, V domains shown)
VH: QVQLVETGGGVVQPGRSLRLSCAASGFTFSSYGMHWVRQAPGKGLEWVAVIWYDGSNKDYADPVKGRFTISRDNSKNTLYLQMNSLRAEDTAVYYCAREIASRGYSRYLYYFDSWGQGTLVTVSS
VL: DIQMTQSPSSLSASVGDRVTITCRASQSISSYLNWYQQNPGKAPKLLIYGASNLQSGVPSRFSGSGSGTDFTLTISSLQPEDFATYYCQQSYSTLALTFGGGTKVEIKR
notes: as for B2
B16: RhD297.126E06 (Fab, V domains shown)
VH: B15 VH with T7S, S30R, S31T, P63S, Y80H, F112L, S114F
VL: B15 VL with M4L
notes: as for B2
B17: RhD200.164G10 (Fab, V domains shown)
VH: VQLVESGGGGVVQPGRSLRLSCAASGFTFSSYGMHWVRQAPGKGLEWVAVIWYDGSNKYYADSVKGRFTISRDNSKNTLYLQMNSLRAEDTAVYYCARESTLYSSSWYRRYYYYGMDVWGQGTTVTVSS
VL: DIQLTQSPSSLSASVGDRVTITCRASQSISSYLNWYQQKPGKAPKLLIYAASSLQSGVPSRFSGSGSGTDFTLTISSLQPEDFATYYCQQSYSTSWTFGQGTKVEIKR
notes: as for B2
B18: RhD201.164H12 (Fab, V domains shown)
VH: B10 VH with E1Q, N31S, G33A, W52S, M100S, V101T, S102L, V115S, K121Q
VL: EIVLTQSPATLSVSPGERATLSCRASQSVTSNLAWYQQKPGQAPRLLIYGASTRATGVPARFSGSGSGTEFSLTISSLQSEDFAVYYCQQYNNWPPIFTFGPGTKLDIKR
notes: as for B2
B19: RhD192.119G06 (Fab, V domains shown)
VH: QVQLVESGGGLVKPGGSLRLSCAASGFTFSSYAMNWVRQAPGKGLEWVSSISGTSSYIYYADSVKGRFTIFRDNAKSSVYLQMNSLRVEDTAVYYCARDRWWGMVRRVFPTYPFDYWGQGTLVTVSS
VL: DIQLTQSPSSVSASVGDRVTITCRASQGINNLLAWYQQKPGKAPKLLIYAASNLQSGVPSRFSGSGSGTDFTLTINSLQPEDFATYYCQQANSFPLTFGGGTKVEIKR
notes: as for B2

What follows are binders tested against T1, Rhesus D antigen (human, UniProt Q02161 2-417) (assay: agglutination assay, Fab on RhD(+)/RhD(-) RBC mix).
T1 construct: whole, on cells; Presented on RhD-positive erythrocytes in all assays; also called RhD; RhD antigen
T1 sequence (looked up): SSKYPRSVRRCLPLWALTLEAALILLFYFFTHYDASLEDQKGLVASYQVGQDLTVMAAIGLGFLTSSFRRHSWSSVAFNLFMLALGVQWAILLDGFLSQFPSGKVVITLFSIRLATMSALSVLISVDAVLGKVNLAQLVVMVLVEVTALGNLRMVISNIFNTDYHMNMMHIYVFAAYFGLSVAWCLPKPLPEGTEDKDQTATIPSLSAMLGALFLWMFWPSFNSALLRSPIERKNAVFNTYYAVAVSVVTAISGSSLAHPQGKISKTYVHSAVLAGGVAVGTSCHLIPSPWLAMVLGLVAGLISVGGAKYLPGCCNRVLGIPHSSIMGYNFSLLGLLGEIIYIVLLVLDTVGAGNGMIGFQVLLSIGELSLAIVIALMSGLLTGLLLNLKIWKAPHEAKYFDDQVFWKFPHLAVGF
Protocol: After each round of panning single colonies were picked for analysis of their binding properties to red blood cells in agglutination assays. Briefly, single colonies were inoculated into 2×YT/100 μg/mL carbenicillin/1% glucose and shaken overnight at 37° C. The next day, DeepWell plates were inoculated using 900 μl 2×YT/100 μg/mL carbenicillin/0.1% glucose and 10 μl overnight culture. The plates were shaken for two hours at 37° C., before Fab induction was performed with addition of 300 μl 2×YT/100 μg/mL carbenicillin/0.25 mM IPTG per well. The plate was shaken overnight at 30° C. The following day, the bacteria were pelleted by centrifugation (3200×g, 4° C., 10 minutes), and re-suspended in 100 μl of 0.8 M NaCl, 0.2×PBS, 8 mM EDTA, and incubated for 15 minutes on ice in order to perform a periplasmic extraction of the Fab fragments. The plate was transferred to −20° C. and finally the suspension was thawed and centrifugation was performed for 10 minutes at 4° C. and 3200×g. The periplasmic extract was used in ELISA assays for analysis of Fab content and in agglutination assays to evaluate the binding potential of the individual Fab fragments. The agglutination assay was performed as follows: RhD(−) and RhD(+) RBC were mixed in a 1:1 ratio, and washed 3 times in PBS. After the final wash, the cell mix was re-suspended in 1% BSA in PBS at a density of 1% cells, 50 μl was added to each well of a 96-plate. Periplasmic extracts were added to the wells. As a positive control Rhesogamma P immunoglobulin (Aventis) was used according to the manufacturer's instructions. The plates were incubated for one hour at room temperature with gentle shaking. The cells were washed three times with PBS, before the secondary antibody was added (goat anti-human Fab/FITC conjugate, Sigma F5512) in a 1:100 dilution. The plates were left for agglutination for one hour at room temperature without shaking. Fab fragments positive in the agglutination assay was determined by visual inspection, and recorded by taking a picture. Quantization of the binding activity of the Fab fragments was performed by FACS analysis of the agglutination samples.

Binding result, binds:
B1
B2
B3
B4
B5
B6
B7
B8
B9
B10
B11
B12
B13
B14
B15
B16
B17
B18
B19
